This is an account of results in patent US20090186842, “Methods and compositions for inhibition of viral replication” (published 2009).

For one series, the target named is T1, GST-TIAR RRM1 (UniProt Q01085 Q01085:9-85).
T1 sequence: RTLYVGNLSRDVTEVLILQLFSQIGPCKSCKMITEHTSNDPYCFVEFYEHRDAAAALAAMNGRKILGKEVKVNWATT
Kind of series: EMSA; 200 nM protein. Conditions: tags: GST fusion; label: 32P; stem-loop. In general terms: In EMSA bound probe runs differently from free probe, usually more slowly.

A further series deals with T2, GST-TIAR RRM3 (UniProt Q01085 Q01085:205-277).
T2 sequence: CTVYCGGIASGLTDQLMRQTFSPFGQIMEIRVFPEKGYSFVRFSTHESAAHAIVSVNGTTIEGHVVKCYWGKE
The series is described as follows: EMSA; 200 nM protein. The settings on record: tags: GST fusion; label: 32P; stem-loop.

A further series concerns the target T3, GST-TIAR RRM2 (UniProt Q01085 Q01085:97-175).
T3 sequence: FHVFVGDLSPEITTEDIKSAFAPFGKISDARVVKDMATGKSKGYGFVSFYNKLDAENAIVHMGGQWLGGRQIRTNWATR
The series is described as follows: EMSA; SD 5 nM, n=1.2. The settings on record: tags: GST fusion; label: 32P; stem-loop.

The target of the next series is T4, GST-TIA-1 RRM2 (UniProt P31483 P31483:106-184).
T4 sequence: T3 sequence with S19A, K26R, Y50F, L53W, V60Q, H61Q
The series is described as follows: EMSA; SD 15 nM, n=1.1. The settings on record: tags: GST fusion; label: 32P; stem-loop.

In a further series the target is T5, GST-TIA-1 RRM3 (UniProt P31483 P31483:214-286).
T5 sequence: T2 sequence with I8V, A9T, D14E, E35D, S44N, T45S
The series is described as follows: EMSA; 500 nM protein. The settings on record: tags: GST fusion; label: 32P; stem-loop.

Another series has as its target T6, GST-TIA-1 RRM1 (UniProt P31483 P31483:7-83).
T6 sequence: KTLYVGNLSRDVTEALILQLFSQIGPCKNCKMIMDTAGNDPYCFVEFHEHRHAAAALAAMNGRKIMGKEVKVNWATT
Kind of series: EMSA; 500 nM protein. Conditions: tags: GST fusion; label: 32P; stem-loop.

The target of a further series is T7, TIARa (rTIAR) (Mus musculus, UniProt P70318 P70318:1-392).
T7 sequence: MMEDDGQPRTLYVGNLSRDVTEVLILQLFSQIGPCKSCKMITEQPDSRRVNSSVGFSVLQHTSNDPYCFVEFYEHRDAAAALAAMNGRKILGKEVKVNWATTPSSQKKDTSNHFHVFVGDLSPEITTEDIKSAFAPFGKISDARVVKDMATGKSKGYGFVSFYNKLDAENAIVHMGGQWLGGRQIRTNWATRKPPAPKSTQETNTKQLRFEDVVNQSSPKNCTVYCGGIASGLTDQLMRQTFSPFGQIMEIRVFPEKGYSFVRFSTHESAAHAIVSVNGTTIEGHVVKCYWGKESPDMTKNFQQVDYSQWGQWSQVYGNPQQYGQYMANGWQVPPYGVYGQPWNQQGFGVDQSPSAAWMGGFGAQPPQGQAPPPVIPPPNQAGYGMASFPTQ
The series is described as follows: EMSA; 5-90 nM protein, 0.2 nM RNA, 1 mM MgCl2, 30 mM KCl, RT. The settings on record: tags: C-terminal His6; label: 32P; stem-loop; AU-rich loops L1, L2, L3.

Positions count from the first letter of the chain named.

B1: WNV 3'(-)SL RNA with 5' CCC (ssRNA)
RNA: CCCCAGCUCGCACCGUGUUAAUUGUUGUUAAUCCUCACAAACACUACUAAGUUUGUCAGCUCACACAGGCGAACUACU
Consider B1, for which the binding result with GST-TIAR RRM1, in the series with GST-TIAR RRM3, with GST-TIA-1 RRM3 and with GST-TIA-1 RRM1 was “no binding” in each case. The Kd is 15 nM with GST-TIAR RRM2 and 112 nM with GST-TIA-1 RRM2.

B2: WNV3'(-)SL RNA (ssRNA)
RNA: CAGCUCGCACCGUGUUAAUUGUUGUUAAUCCUCACAAACACUACUAAGUUUGUCAGCUCACACAGGCGAACUACU
For the molecule B2, the binding result in the series with TIARa (rTIAR) was “binds”.

The term Kd denotes the free concentration of one partner at which half of the binding sites on the other are occupied at equilibrium, for simple one-to-one binding. A low value points to a tighter complex.
